The supplement of paper PMC12667976

B1: library; numbered along this chain (parent)
chain: MATDAALRRLLRLHRTEIAVAVDSAFPLLHALADHDVVPEDKFQETLHLKEKEGCPQAFHALLSWLLTQDSTAILDFWRVLFKDYNLERYGRLQPILDSFPKDVDLSQPRKGRKPPAVPKALVPPPRLPTKRKASEEARAAAPAALTPRGTASPGSQLKAKPPKKPESSAEQQRLPLGNGIQTMSASVQRAVAMSSGDVPGARGAVEGILIQQVFESGGSKKCIQVGGEFYTPSKFEDSGSGKNKARSSSGPKPLVRAKGAQGAAPGGGEARLGQQGSVPAPLALPSDPQLHQKNEDECAVCRDGGELICCDGCPRAFHLACLSPPLREIPSGTWRCSSCLQATVQEVQPRAEEPRPQEPPVETPLPPGLRSAGEEVRGPPGEPLAGMDTTLVYKHLPAPPSAAPLPGLDSSALHPLLCVGPEGQQNLAPGARCGVCGDGTDVLRCTHCAAAFHWRCHFPAGTSRPGTGLRCRSCSGDVTPAPVEGVLAPSPARLAPGPAKDDTASHEPALHRDDLESLLSEHTFDGILQWAIQSMARPAAPFPS

Variants of: B1
Test: AIRE transcriptional activation functional score (insulin promoter-GFP; nonsense median 0, synonymous median 1) (normalised score); higher = higher AIRE activity (more reporter activation)
Conditions: with insulin promoter-GFP reporter in HEK293
Method in brief: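 Using Bxb1 recombinase, codon-optimized NNN-codon libraries for three AIRE regions were inserted into Flp-In T-REx HEK293 landing-pad cells with an insulin core promoter-GFP reporter. After integrants (mCherry+, BFP−) were sorted at day 7 and expanded for 7 days, the top 10% GFP and unselected integrant populations underwent tile-sequencing. Functional scores are wild-type-subtracted enrichments of variants in select over non-select samples. A cutoff of 10 counts per million in non-select applied, and values were rescaled (nonsense median 0, synonymous median 1) and averaged over biological replicates.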

AIRE transcriptional activation functional score, by site and new letter:
G486: A 0.707; D 0.692; C 0.625; Y 0.737; T 0.154; V 1.45; K 0.91; H 1.27; P 1; E 0.566; R 0.926; I 1.37; Q 0.85; L 1.03; F 1.46; S 1.16; W 1.49; N 0.995
E485: D 0.981; A 0.466; I 1.1; F 1.1; M -0.286; G 1.05; C 1.24; V 0.951; Y 0.948; H 0.537; R 0.652; T 1.02; W 1.08; S 0.955; N 0.645; P 1.25; Q 0.397; K 0.777; L 1.11
V484: Y 0.975; R 0.893; I 1.45; A 0.726; T 1.04; W 1.18; C 0.29; S 0.906; L 0.509; D 0.164; G 1.18; F 0.8; Q 1.72; E 0.615
A489: Q 0.0401; S 0.687; E 0.655; V 0.959; L 1.06; K 0.705; F 1.16; C 1.19; T 1.44; H 1.18; I 0.859; M 1.23; W 0.893; G 0.932; R 0.51; Y 1.22; P 1.01; D 1.17
A482: S 1.34; D 1.42; G 1.31; Q 0.773; L 1.44; P 1.92; Y 1.42; V 1.23; F -0.132; T 0.312; R 0.557; I 1.32; E 1.28; N 1.2; K 1.11
T480: I 0.515; C 1.12; P 1.05; D 0.65; H 1.18; A 0.564; F 1.32; L 1; S 0.786; Q 0.203; K 0.954; N 0.784; W 1.13; R 0.837; V 1.45; G 1.11; Y 0.806
V479: Q 1.24; A 0.734; S 0.925; R 0.978; E 1.39; T 0.956; I 0.977; H 1.16; C 1.15; L 0.811; P 0.967; F 0.98; M 1.1; D 0.363; N 1.08; W 1.09; K 0.833; G 0.838; Y 0.896
P490: A 0.812
S474: K 0.466; M 0.192; H 0.593; N 0.296; I 0.0981; T 0.317; D 1.33; R 0.817; C 0.824; P 1.17; Y 0.736; L 0.185; G 0.801; Q 1.02; A 0.936; V 0.167; E 1.16; F 1.12
P483: H 1.13; I 1.6; S 0.811; N 0.937; M 1.36; C 1.44; R 1.03; G 1.89; K 0.675; V 1.03; A 0.722; F 1.33; Q 0.926; L 0.603; T 1.46
P481: G 0.747; S 0.91; Q 0.501; R 0.956; F 1.16; M 1.29; N 0.00715; V 1.38; K 1.02; A 0.586; E 0.44; C 0.688; Y 1.37; W 1.39; I 0.238; D 1.21; T 0.704; L 0.8; H 1.14
R473: E 1.16; T 1.06; Q 0.968; M 0.947; V 0.334; K 0.66; L 1.29; P 0.607; C 0.937; S 0.755; N 0.99; D 0.836; I 0.852; W 0.97; Y 1.64; F 0.997; A 0.794; G 0.848; H -0.49
G477: P 1.46; D 0.678; V 1.13; M 1.01; Q 0.0223; L 0.273; Y 0.642; W 0.745; F 1.36; A 0.739; K 1.11; C 0.926; H 1.41; I 1.01; N 1.12; E 0.302; T -0.261; S 0.661; R 0.787
D478: T 0.678; G 0.841; N 0.709; S 0.816; E 1.09; Q 0.891; A 0.808; H 0.829; I 1.06; M 0.485; C 0.947; P 0.801; W 0.544; R 0.412; F 0.799; V 0.89; Y 0.902; L 0.949; K 0.926
V487: F 0.765; Q 0.492; M 0.568; C 0.67; H 0.858; T 1.5; P 1.04; L 1.03; R 0.785; E -0.349; G 0.931; N 0.296; S 0.901; K 0.821; I 1.06; Y 1.13; W 0.552; A 1.02
S476: K 0.603; E 0.948; G 0.844; L 0.829; F 1.21; R 0.828; Y 1.19; I 1.23; T 1.2; P 1.02; W 1.09; C 0.608; D 0.455; A 0.905; H 0.529; V 0.878; M 0.943; Q 0.151
C475: Y 0.0941; I 0.147; L 0.0763; Q 0.568; D -0.0916; P -0.156; V 0.0724; S 0.0047; M -0.469; E -0.103; W -0.0091; A 0.119; K -0.353; H 0.16; N 0.255; R -0.148; T 0.102; G 0.304; F 0.14
R471: L 0.799; S 0.674; I 1.05; M 1.36; K 0.921; Y 1.13; V 0.217; T 0.747; Q 0.5; P 0.89; W 1.12
C472: Q -0.424; A -0.164; E 0.216; F 0.226; N 0.0317; I 0.154; M -0.0949; V 0.0438; R 0.0742; D -0.251; P -0.298; S -0.0588; H -0.28; Y 0.117; K 0.158; T -0.165; G 0.0511; L -0.0415; W -0.112
L488: W 1.32; F 1.13; M 0.976; R 0.722; A 1.27; I 0.826; V 1.09; C 0.742; D 0.449; N 0.961; K 1.07; G 1.03; T 1.18; Y 1.31; P 1.04; S 0.854; H 0.298; Q 0.827; E 0.182
